Values quoted from earlier work as cited in paper PMC5394133 (Clinical Drug Investigation, 2017).
Like-named read-outs stand apart in the source and are kept apart here.

Settings: for Maximum concentration, mean / Total exposure, mean: total insulin concentration

In the case of Insulin aspart, the “Maximum concentration, ratio thigh/abdomen” value (0.2 U/kg s.c.) is given as 84%, the “Maximum concentration, ratio upper arm/abdomen” value (0.2 U/kg s.c.) is given as 101% and the “Total exposure, ratio thigh/abdomen” value (0.2 U/kg s.c.) is given as 97%. The “Total exposure, ratio upper arm/abdomen” value (0.2 U/kg s.c.) was 105%, the “Maximum concentration, mean” value (0.2 U/kg s.c., abdomen) was 501 pmol/L and the “Total exposure, mean” value (0.2 U/kg s.c., abdomen) was 1.3 nM·h. For the same substance, the “Maximum concentration, mean” value (0.2 U/kg s.c., thigh) was 422 pmol/L, the “Total exposure, mean” value (0.2 U/kg s.c., thigh) was 1.265 nM·h and the “Maximum concentration, mean” value (0.2 U/kg s.c., upper arm) was 506 pmol/L. The “Total exposure, mean” value (0.2 U/kg s.c., upper arm) was 1.361 nM·h.

In the case of Insulin lispro, the “Maximum concentration, ratio thigh/abdomen” value (0.2 U/kg s.c.) is listed as 78%, the “Maximum concentration, ratio upper arm/abdomen” value (0.2 U/kg s.c.) is listed as 67% and the “Total exposure, ratio thigh/abdomen” value (0.2 U/kg s.c.) is listed as 92%. For the same substance, the “Total exposure, ratio upper arm/abdomen” value (0.2 U/kg s.c.) was 95%, the “Maximum concentration, mean” value (0.2 U/kg s.c., abdomen) was 589 pmol/L and the “Total exposure, mean” value (0.2 U/kg s.c., abdomen) was 1.388 nM·h. The “Maximum concentration, mean” value (0.2 U/kg s.c., thigh) was 458 pmol/L, the “Total exposure, mean” value (0.2 U/kg s.c., thigh) was 1.277 nM·h and the “Maximum concentration, mean” value (0.2 U/kg s.c., upper arm) was 395 pmol/L. The “Total exposure, mean” value (0.2 U/kg s.c., upper arm) was 1.313 nM·h.

For Insulin glulisine, the “Maximum concentration, ratio thigh/abdomen” value (s.c.) is listed as 68%, the “Maximum concentration, ratio upper arm/abdomen” value (s.c.) is listed as 82% and the “Total exposure, ratio thigh/abdomen” value (s.c.) is listed as 93%. The “Total exposure, ratio upper arm/abdomen” value (s.c.) was 97%, the “early exposure within 1 h after administration, lower for the thigh than for the abdomen” value (s.c.) was ~ 40% and the “early exposure within 1 h after administration, lower for the upper arm than for the abdomen” value (s.c.) was ~ 20%.
